Measurements published in US20230056099 (published 2023).

What follows are binders tested against thrombin (human alpha-thrombin) (UniProt P00734;P00734 P00734:328-363,P00734:364-622) (assay: inhibition; 0.1 nM thrombin, 2 uM fibrinogen, absorbance 350 nm).

Binder	IC50 [pM]
D1 (ssDNA, circular (5' and 3' ends joined)) DNA: ATCTCGACTAGTCATAGGGGGCGCGAACATACGCGGTTGGTGTGGTTGGCTGACAATACTCGTGTCTCGGAT	150
D2 (ssDNA, circular (5' and 3' ends joined)) DNA: ATCTCGACTAGTCATAGGGGGCGCGAACATACGCGGTTGGTGTGGTTGGCTGACAATACTCGT	90
GGTTGGTGTGGTTGG (ssDNA) [TBA]	1300
D3 (ssDNA, circular (5' and 3' ends joined)) DNA: ATCTCGACTAGTCATAGGGGGCGCGAACATACGCGGTTGGTGTGGTTGGCTGACAA	130
TBCA (ssDNA, circular (5' and 3' ends joined)) DNA: ATCTCGACTAGTCATAGGGGGCGCGAACATACGCGGTTGGTGTGGTTGGCTGACAATACTCGTTTTTGGTGTCTCGGAT	150
